Reference: patent US20040248785A1 (UNIVERSITY OF MARYLAND BALTIMORE, published 2004)
Blank lines part the entries; values can stand above or below the binder they belong to.

Legend:
[1] = biological target: LRP on mouse embryonic fibroblast (MEF) cells (mouse, UniProt Q91ZX7 20-4545); test: cell-based or functional assay
[2] = biological target: T1, low density lipoprotein receptor-related protein / alpha2-macroglobulin receptor (LRP), isolated from human … (human, UniProt Q07954 20-4544); test: heterologous displacement of 125I-fVIII (1 nM) from LRP-coated wells; isolated A2 domain as competitor
T1 construct: mature; Native receptor coated on microtiter wells; also called purified LRP; immobilized LRP
T1 sequence (Q07954 20-4544, form in doubt): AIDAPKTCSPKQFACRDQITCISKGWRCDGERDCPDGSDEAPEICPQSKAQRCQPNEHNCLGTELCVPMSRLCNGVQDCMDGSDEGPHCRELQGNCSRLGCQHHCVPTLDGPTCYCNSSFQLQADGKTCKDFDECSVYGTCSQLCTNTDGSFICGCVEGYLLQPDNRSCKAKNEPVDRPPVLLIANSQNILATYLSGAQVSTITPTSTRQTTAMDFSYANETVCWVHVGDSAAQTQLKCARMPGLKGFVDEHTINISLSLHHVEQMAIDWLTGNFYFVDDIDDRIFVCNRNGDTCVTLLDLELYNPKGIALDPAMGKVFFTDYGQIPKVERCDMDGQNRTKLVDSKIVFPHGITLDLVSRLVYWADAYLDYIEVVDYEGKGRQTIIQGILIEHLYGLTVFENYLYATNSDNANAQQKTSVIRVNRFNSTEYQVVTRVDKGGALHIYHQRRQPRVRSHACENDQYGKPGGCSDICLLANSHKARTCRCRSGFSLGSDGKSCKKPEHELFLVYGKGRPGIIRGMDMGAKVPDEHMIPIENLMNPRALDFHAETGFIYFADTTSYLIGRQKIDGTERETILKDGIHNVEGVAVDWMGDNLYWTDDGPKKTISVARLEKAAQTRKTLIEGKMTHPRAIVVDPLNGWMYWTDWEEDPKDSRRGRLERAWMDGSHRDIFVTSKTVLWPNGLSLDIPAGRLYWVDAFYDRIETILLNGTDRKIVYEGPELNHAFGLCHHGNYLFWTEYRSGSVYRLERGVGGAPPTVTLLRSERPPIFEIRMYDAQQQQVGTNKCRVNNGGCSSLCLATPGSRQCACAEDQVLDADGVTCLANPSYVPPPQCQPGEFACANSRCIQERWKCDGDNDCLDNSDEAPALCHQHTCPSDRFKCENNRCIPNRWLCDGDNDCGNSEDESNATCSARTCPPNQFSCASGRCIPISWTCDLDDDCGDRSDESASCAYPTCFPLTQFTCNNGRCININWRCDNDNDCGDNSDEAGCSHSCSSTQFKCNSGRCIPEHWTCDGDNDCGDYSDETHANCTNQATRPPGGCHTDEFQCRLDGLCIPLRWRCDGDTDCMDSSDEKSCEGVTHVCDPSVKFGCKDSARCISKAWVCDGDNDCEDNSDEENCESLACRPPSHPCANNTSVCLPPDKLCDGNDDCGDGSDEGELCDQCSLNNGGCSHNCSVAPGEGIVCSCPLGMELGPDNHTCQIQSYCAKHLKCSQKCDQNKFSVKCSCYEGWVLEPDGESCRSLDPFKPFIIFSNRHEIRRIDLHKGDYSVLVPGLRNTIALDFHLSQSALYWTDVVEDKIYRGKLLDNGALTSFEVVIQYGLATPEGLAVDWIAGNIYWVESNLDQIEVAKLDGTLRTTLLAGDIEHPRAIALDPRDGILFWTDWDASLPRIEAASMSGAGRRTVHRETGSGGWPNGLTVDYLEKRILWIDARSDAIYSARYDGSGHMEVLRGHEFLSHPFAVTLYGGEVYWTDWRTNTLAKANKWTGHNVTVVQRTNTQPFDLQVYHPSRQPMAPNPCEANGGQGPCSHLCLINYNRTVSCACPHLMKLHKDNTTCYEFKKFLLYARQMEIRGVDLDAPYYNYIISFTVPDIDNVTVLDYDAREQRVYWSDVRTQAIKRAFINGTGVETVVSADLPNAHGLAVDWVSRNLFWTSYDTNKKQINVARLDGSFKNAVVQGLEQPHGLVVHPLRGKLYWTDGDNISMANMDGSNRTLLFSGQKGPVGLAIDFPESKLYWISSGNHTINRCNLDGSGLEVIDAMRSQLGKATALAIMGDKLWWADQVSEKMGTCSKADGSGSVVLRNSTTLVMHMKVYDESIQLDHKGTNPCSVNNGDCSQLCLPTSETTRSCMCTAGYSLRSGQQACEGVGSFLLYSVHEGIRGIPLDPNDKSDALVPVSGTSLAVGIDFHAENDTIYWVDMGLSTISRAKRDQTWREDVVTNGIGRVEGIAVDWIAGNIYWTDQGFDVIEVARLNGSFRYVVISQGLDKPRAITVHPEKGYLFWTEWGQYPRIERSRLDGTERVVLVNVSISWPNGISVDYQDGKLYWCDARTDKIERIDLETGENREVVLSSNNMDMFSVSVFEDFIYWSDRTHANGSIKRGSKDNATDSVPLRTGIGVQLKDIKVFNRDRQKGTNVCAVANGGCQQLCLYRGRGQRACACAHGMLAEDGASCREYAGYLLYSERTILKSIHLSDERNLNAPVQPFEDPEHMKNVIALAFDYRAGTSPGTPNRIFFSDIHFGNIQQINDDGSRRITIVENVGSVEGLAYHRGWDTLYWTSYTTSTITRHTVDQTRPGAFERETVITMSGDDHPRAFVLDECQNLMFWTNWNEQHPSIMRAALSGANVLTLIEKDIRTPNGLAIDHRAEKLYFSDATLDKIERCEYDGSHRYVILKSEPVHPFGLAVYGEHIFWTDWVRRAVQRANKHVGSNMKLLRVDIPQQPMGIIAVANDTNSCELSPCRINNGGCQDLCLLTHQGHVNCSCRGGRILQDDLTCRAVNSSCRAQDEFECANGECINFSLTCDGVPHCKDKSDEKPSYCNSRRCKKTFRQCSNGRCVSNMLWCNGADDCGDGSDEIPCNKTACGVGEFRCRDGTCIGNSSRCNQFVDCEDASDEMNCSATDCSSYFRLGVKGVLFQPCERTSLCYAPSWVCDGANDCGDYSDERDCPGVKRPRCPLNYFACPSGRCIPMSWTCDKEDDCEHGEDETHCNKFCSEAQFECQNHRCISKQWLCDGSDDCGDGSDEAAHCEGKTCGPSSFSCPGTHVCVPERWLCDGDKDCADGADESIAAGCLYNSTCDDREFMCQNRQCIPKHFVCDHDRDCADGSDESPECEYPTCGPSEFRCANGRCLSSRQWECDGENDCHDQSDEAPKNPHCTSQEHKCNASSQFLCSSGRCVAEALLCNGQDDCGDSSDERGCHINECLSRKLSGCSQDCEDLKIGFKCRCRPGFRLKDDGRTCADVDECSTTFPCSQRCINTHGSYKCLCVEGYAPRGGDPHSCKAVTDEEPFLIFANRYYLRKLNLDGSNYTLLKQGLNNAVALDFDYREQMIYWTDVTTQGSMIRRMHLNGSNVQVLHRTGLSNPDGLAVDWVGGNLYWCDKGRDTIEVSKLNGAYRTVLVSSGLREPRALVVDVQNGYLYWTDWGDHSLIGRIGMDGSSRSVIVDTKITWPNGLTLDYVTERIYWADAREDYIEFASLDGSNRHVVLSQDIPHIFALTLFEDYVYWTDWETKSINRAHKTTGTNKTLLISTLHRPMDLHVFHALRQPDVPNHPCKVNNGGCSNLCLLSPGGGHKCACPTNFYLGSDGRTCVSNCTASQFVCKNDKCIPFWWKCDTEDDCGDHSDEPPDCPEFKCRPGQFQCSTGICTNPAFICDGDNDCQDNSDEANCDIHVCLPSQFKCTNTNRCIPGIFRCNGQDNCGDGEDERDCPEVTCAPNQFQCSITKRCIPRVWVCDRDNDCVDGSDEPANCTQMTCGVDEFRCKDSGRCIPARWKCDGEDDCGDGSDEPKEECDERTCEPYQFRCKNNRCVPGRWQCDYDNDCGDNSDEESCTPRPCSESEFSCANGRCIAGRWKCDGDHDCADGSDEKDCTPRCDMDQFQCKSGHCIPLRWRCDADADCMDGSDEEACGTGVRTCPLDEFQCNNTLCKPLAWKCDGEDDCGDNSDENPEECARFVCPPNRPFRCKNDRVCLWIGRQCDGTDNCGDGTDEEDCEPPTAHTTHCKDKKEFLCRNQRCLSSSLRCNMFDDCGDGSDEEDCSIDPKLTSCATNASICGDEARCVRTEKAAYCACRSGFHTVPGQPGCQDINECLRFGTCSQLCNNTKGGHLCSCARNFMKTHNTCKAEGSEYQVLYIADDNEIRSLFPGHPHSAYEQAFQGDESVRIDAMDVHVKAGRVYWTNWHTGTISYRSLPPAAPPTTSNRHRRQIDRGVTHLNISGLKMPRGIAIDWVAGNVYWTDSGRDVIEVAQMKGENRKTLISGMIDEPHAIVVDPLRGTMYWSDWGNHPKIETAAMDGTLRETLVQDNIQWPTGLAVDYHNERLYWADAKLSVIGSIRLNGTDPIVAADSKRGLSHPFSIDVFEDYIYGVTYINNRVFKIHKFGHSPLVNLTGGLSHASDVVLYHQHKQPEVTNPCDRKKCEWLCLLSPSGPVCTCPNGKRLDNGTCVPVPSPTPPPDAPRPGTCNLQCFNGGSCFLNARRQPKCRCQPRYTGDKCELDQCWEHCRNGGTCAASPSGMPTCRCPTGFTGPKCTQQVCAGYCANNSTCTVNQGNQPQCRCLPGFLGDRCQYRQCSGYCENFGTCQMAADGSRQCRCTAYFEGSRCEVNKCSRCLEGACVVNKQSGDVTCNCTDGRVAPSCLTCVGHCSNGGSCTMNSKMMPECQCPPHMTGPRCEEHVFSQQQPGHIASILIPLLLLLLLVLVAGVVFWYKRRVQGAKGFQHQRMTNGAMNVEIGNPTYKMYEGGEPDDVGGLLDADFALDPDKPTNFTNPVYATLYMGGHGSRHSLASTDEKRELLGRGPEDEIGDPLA
Description: (§1) Homologous and heterologous ligand displacement assays were performed as previously described (Williams, S. E., et al., J. Biol. Chem. 267:9035-9040 (1992)). Microtiter wells were coated with purified LRP or BSA (3 μg/ml) in 50 mM Tris, 0.15 M NaCl, pH 8.0, for 16 h and then blocked with 3% BSA in TBS. Coated wells were incubated with ¹²⁵I-A2 or ¹²⁵I-fVIII in 20 mM Tris-buffered saline pH 7.4, containing 5 mM CaCl₂, 0.05% Tween-20 in the presence or absence of unlabeled competitors for 1 h at 37° C. The radioactivity bound to the wells was counted using a γ-counter (Pharmacia). Affinity constants were derived from homologous and heterologous displacement data using the computer program LIGAND (Munson, P T and Rodbard, D. Anal. Biochem. 107:220-239 (1980)).
(§2) In order to localize fVIII region(s) involved in interaction with LRP, binding between ¹²⁵I-fVIII and immobilized LRP was competed by unlabeled fVIII fragments.

[3] = biological target: T1, low density lipoprotein …; test: homologous displacement of 125I-A2 (5 nM) by unlabeled A2 (0-1750 nM) on immobilized LRP, program Ligand
[4] = biological target: T1, low density lipoprotein …; test: RAP as competitor of 125I-fVIII (1 nM) binding to LRP-coated wells, LIGAND fit
[5] = biological target: T1, low density lipoprotein …; test: solid-phase heterologous ligand displacement: RAP competes with 125I-fVIII (1 nM) for LRP-coated wells, 1 h at 37 C
Description: FIGS. 15A-15B. Binding of ¹²⁵I-fVIII to purified LRP by ligand competition assay. ¹²⁵I-fVIII (1 nM) was incubated for 1 h at 37° C. in wells coated with LRP (•) or BSA (∘) in the presence of increasing concentrations of unlabeled competitors, fVIII (•, ∘) or vWf (Δ) (FIG. 15A) and RAP (•, ∘) (FIG. 15B). In the experiment (Δ), ¹²⁵I-fVIII was preincubated with vWf for 30 min at 37° C., prior to its addition to the wells. Following incubation, the wells were washed and ¹²⁵I-fVIII binding was determined. Binding of ¹²⁵I-fVIII in the presence of unlabeled fVIII, vWf, or RAP is expressed as the percentage of ¹²⁵fVIII binding, when no competitor was added. Each point represents the mean value of triplicates and the error bars display the standard deviation. The curves show a best fit of the data to a model describing heterologous ligand displacement from a single class of binding sites using the program LIGAND.
Homologous and heterologous ligand displacement assays were performed as previously described (Williams, S. E., et al., J. Biol. Chem. 267:9035-9040 (1992)). Microtiter wells were coated with purified LRP or BSA (3 μg/ml) in 50 mM Tris, 0.15 M NaCl, pH 8.0, for 16 h and then blocked with 3% BSA in TBS. […] The radioactivity bound to the wells was counted using a γ-counter (Pharmacia). […]

[6] = biological target: T1, low density lipoprotein …; test: competition assay: peptide 484-509 added with 125I-fVIII (1 nM) to LRP-coated wells; competitor of fVIII for LRP
Description: FIGS. 17A-17B. Effect of monoclonal antibodies and synthetic peptides on ¹²⁵fVIII binding to purified LRP. […] Binding of ¹²⁵I-fVIII in the presence antibodies or peptides is expressed as the percentage of its binding, when no competitor was added. The mean and standard deviation of the triplicate measurements are presented.
as §1

[7] = biological target: T1, low density lipoprotein …; test: heterologous displacement of 125I-fVIII (1 nM) from LRP-coated wells; HCh as competitor
Description: as §1, §2

B1: A2 subunit (A2 domain) of factor VIII, isolated from thrombin-activated fVIII (other)
chain: SVAKKHPKTWVHYIAAEEEDWDYAPLVLAPDDRSYKSQYLNNGPQRIGRKYKKVRFMAYTDETFKTREAIQHESGILGPLLYGEVGDTLLIIFKNQASRPYNIYPHGITDVRPLYSRRLPKGVKHLKDFPILPGEIFKYKWTVTVEDGPTKSDPRCLTRYYSSFVNMERDLASGLIGPLLICYKESVDQRGNQIMSDKRNVILFSVFDENRSWYLTENIQRFLPNPAGVQLEDPEFQASNIMHSINGYVFDSLQLSVCLHEVAYWYILSIGAQTDFLSVFFSGYTFKHKMVYEDTLTLFPFSGETVFMSMENPGLWILGCHNSDFRNRGMTALLKVSSCDKNTGDYYEDSYEDISAYLLSKNNAIEPR
modifications: 125I-labelled where used as tracer
notes: Protein was made from plasma-derived fVIII
inhibition of degradation of 125I-fVIII/vWf complex by MEF cells by a 1000-fold excess of A2, after 4 hours [1]: > 60% | inhibition of internalization of 125I-fVIII/vWf complex by MEF cells by a 1000-fold excess of A2, after 4 hours [1]: > 70% | Ki [2]: 132 nM | Kd [3]: 130 nM

Binder: RPLYSRRLPKGVKHLKDFPILPGEIF [synthetic peptide of fVIII A2 domain residues 484-509]
IC50 (read off the curve) [6]: ~1000 nM

Next, values leading:

Ki [4]: 2.5 nM | IC50 (read off the curve) [5]: ~2 nM
B2: 39 kDa receptor-associated protein (RAP), human, expressed in bacteria (ligand)
chain: YSREKNQPKPSPKRESGEEFRMEKLNQLWEKAQRLHLPPVRLAELHADLKIQERDELAWKKLKLDGLDEDGEKEARLIRNLNVILAKYGLDGKKDARQVTSNSLSGTQEDGLDDPRLEKLWHKAKTSGKFSGEELDKLWREFLHHKEKVHEYNVLLETLSRTEEIHENVISPSDLSDIKGSVLHSRHTELKEKLRSINQGLDRLRRVSHQGYSTEAEFEEPRVIDLWDLAQSANLTDKELEAFREELKHFEAKIEKHNHYQKQLEIAHEKLRHAESVGDGERVSRSREKHALLEGRTKELGYTVKKHLQDLSGRISRARHNEL
notes: also called alpha2 macroglobulin receptor-associated protein

Ki [7]: 120 nM
B3: heavy chain (HCh) of factor VIII (other)
chain: ATRRYYLGAVELSWDYMQSDLGELPVDARFPPRVPKSFPFNTSVVYKKTLFVEFTDHLFNIAKPRPPWMGLLGPTIQAEVYDTVVITLKNMASHPVSLHAVGVSYWKASEGAEYDDQTSQREKEDDKVFPGGSHTYVWQVLKENGPMASDPLCLTYSYLSHVDLVKDLNSGLIGALLVCREGSLAKEKTQTLHKFILLFAVFDEGKSWHSETKNSLMQDRDAASARAWPKMHTVNGYVNRSLPGLIGCHRKSVYWHVIGMGTTPEVHSIFLEGHTFLVRNHRQASLEISPITFLTAQTLLMDLGQFLLFCHISSHQHDGMEAYVKVDSCPEEPQLRMKNNEEAEDYDDDLTDSEMDVVRFDDDNSPSFIQIRSVAKKHPKTWVHYIAAEEEDWDYAPLVLAPDDRSYKSQYLNNGPQRIGRKYKKVRFMAYTDETFKTREAIQHESGILGPLLYGEVGDTLLIIFKNQASRPYNIYPHGITDVRPLYSRRLPKGVKHLKDFPILPGEIFKYKWTVTVEDGPTKSDPRCLTRYYSSFVNMERDLASGLIGPLLICYKESVDQRGNQIMSDKRNVILFSVFDENRSWYLTENIQRFLPNPAGVQLEDPEFQASNIMHSINGYVFDSLQLSVCLHEVAYWYILSIGAQTDFLSVFFSGYTFKHKMVYEDTLTLFPFSGETVFMSMENPGLWILGCHNSDFRNRGMTALLKVSSCDKNTGDYYEDSYEDISAYLLSKNNAIEPRSFSQNSRHRSTRQKQFNATTIPENDIEKTDPWFAHRTPMPKIQNVSSSDLLMLLRQSPTPHGLSLSDLQEAKYETFSDDPSPGAIDSNNSLSEMTHFRPQLHHSGDMVFTPESGLQLRLNEKLGTTAATELKKLDFKVSSTSNNLISTIPSDNLAAGTDNTSSLGPPSMPVHYDSQLDTTLFGKKSSPLTESGGPLSLSEENNDSKLLESGLMNSQESSWGKNVSSTESGRLFKGKRAHGPALLTKDNALFKVSISLLKTNKTSNNSATNRKTHIDGPSLLIENSPSVWQNILESDTEFKKVTPLIHDRMLMDKNATALRLNHMSNKTTSSKNMEMVQQKKEGPIPPDAQNPDMSFFKMLFLPESARWIQRTHGKNSLNSGQGPSPKQLVSLGPEKSVEGQNFLSEKNKVVVGKGEFTKDVGLKEMVFPSSRNLFLTNLDNLHENNTHNQEKKIQEEIEKKETLIQENVVLPQIHTVTGTKNFMKNLFLLSTRQNVEGSYDGAYAPVLQDFRSLNDSTNRTKKHTAHFSKKGEEENLEGLGNQTKQIVEKYACTTRISPNTSQQNFVTQRSKRALKQFRLPLEETELEKRIIVDDTSTQWSKNMKHLTPSTLTQIDYNEKEKGAITQSPLSDCLTRSHSIPQANRSPLPIAKVSSFPSIRPIYLTRVLFQDNSSHLPAASYRKKDSGVQESSHFLQGAKKNNLSLAILTLEMTGDQREVGSLGTSATNSVTYKKVENTVLPKPDLPKTSGKVELLPKVHIYQKDLFPTETSNGSPGHLDLVEGSLLQGTEGAIKWNEANRPGKVPFLRVATESSAKTPSKLLDPLAWDNHYGTQIPKEEWKSQEKSPEKTAFKKKDTILSLNACESNHAIAAINEGQNKPEIEVTWAKQGRTERLCSQNPPVLKRHQR
notes: Prepared from plasma-derived fVIII
